Experimental data from paper PMC10348774.

Assays:
[1] = IB of endogenous pre- and matADAM10; details: glycan lost; control: untreated / vector SK-BR-3
[2] = flow cytometry of membrane ADAM10; details: glycan lost; control: control SK-BR-3
[3] = IB of precursor and mature forms; details: glycan lost; control: wild type (implied)
[4] = IB and IF with ER marker Calnexin; details: glycan lost; control: wild type (implied)
[5] = IB after Eer I or MG132 rescue; details: glycan lost; control: untreated SK-BR-3

Row | Protein | expression_or_secretion [1] | localisation_or_trafficking [2] | further results
1 | ADAM metallopeptidase domain 10 (ADAM10): tunicamycin (protein) parent chain: MVLLRVLILLLSWAAGMGGQYGNPLNKYIRHYEGLSYNVDSLHQKHQRAKRAVSHEDQFLRLDFHAHGRHFNLRMKRDTSLFSDEFKVETSNKVLDYDTSHIYTGHIYGEEGSFSHGSVIDGRFEGFIQTRGGTFYVEPAERYIKDRTLPFHSVIYHEDDINYPHKYGPQGGCADHSVFERMRKYQMTGVEEVTQIPQEEHAANGPELLRKKRTTSAEKNTCQLYIQTDHLFFKYYGTREAVIAQISSHVKAIDTIYQTTDFSGIRNISFMVKRIRINTTADEKDPTNPFRFPNIGVEKFLELNSEQNHDDYCLAYVFTDRDFDDGVLGLAWVGAPSGSSGGICEKSKLYSDGKKKSLNTGIITVQNYGSHVPPKVSHITFAHEVGHNFGSPHDSGTECTPGESKNLGQKENGNYIMYARATSGDKLNNNKFSLCSIRNISQVLEKKRNNCFVESGQPICGNGMVEQGEECDCGYSDQCKDECCFDANQPEGRKCKLKPGKQCSPSQGPCCTAQCAFKSKSEKCRDDSDCAREGICNGFTALCPASDPKPNFTDCNRHTQVCINGQCAGSICEKYGLEECTCASSDGKDDKELCHVCCMKKMDPSTCASTGSVQWSRHFSGRTITLQPGSPCNDFRGYCDVFMRCRLVDADGPLARLKKAIFSPELYENIAEWIVAHWWAVLLMGIALIMLMAGFIKICSVHTPSSNPKLPPPKPLPGTLKRRRPPQPIQQPQRQRPRESYQMGHMRR | decreases | decreases | 
2 | ADAM metallopeptidase domain 10 (ADAM10): N267Q (protein) parent chain: MVLLRVLILLLSWAAGMGGQYGNPLNKYIRHYEGLSYNVDSLHQKHQRAKRAVSHEDQFLRLDFHAHGRHFNLRMKRDTSLFSDEFKVETSNKVLDYDTSHIYTGHIYGEEGSFSHGSVIDGRFEGFIQTRGGTFYVEPAERYIKDRTLPFHSVIYHEDDINYPHKYGPQGGCADHSVFERMRKYQMTGVEEVTQIPQEEHAANGPELLRKKRTTSAEKNTCQLYIQTDHLFFKYYGTREAVIAQISSHVKAIDTIYQTTDFSGIRNISFMVKRIRINTTADEKDPTNPFRFPNIGVEKFLELNSEQNHDDYCLAYVFTDRDFDDGVLGLAWVGAPSGSSGGICEKSKLYSDGKKKSLNTGIITVQNYGSHVPPKVSHITFAHEVGHNFGSPHDSGTECTPGESKNLGQKENGNYIMYARATSGDKLNNNKFSLCSIRNISQVLEKKRNNCFVESGQPICGNGMVEQGEECDCGYSDQCKDECCFDANQPEGRKCKLKPGKQCSPSQGPCCTAQCAFKSKSEKCRDDSDCAREGICNGFTALCPASDPKPNFTDCNRHTQVCINGQCAGSICEKYGLEECTCASSDGKDDKELCHVCCMKKMDPSTCASTGSVQWSRHFSGRTITLQPGSPCNDFRGYCDVFMRCRLVDADGPLARLKKAIFSPELYENIAEWIVAHWWAVLLMGIALIMLMAGFIKICSVHTPSSNPKLPPPKPLPGTLKRRRPPQPIQQPQRQRPRESYQMGHMRR |  |  | other: proteolytic processing [3]: no change
3 | ADAM metallopeptidase domain 10 (ADAM10): N278Q (protein) parent chain: MVLLRVLILLLSWAAGMGGQYGNPLNKYIRHYEGLSYNVDSLHQKHQRAKRAVSHEDQFLRLDFHAHGRHFNLRMKRDTSLFSDEFKVETSNKVLDYDTSHIYTGHIYGEEGSFSHGSVIDGRFEGFIQTRGGTFYVEPAERYIKDRTLPFHSVIYHEDDINYPHKYGPQGGCADHSVFERMRKYQMTGVEEVTQIPQEEHAANGPELLRKKRTTSAEKNTCQLYIQTDHLFFKYYGTREAVIAQISSHVKAIDTIYQTTDFSGIRNISFMVKRIRINTTADEKDPTNPFRFPNIGVEKFLELNSEQNHDDYCLAYVFTDRDFDDGVLGLAWVGAPSGSSGGICEKSKLYSDGKKKSLNTGIITVQNYGSHVPPKVSHITFAHEVGHNFGSPHDSGTECTPGESKNLGQKENGNYIMYARATSGDKLNNNKFSLCSIRNISQVLEKKRNNCFVESGQPICGNGMVEQGEECDCGYSDQCKDECCFDANQPEGRKCKLKPGKQCSPSQGPCCTAQCAFKSKSEKCRDDSDCAREGICNGFTALCPASDPKPNFTDCNRHTQVCINGQCAGSICEKYGLEECTCASSDGKDDKELCHVCCMKKMDPSTCASTGSVQWSRHFSGRTITLQPGSPCNDFRGYCDVFMRCRLVDADGPLARLKKAIFSPELYENIAEWIVAHWWAVLLMGIALIMLMAGFIKICSVHTPSSNPKLPPPKPLPGTLKRRRPPQPIQQPQRQRPRESYQMGHMRR |  |  | localisation_or_trafficking [4]: changes
4 | ADAM metallopeptidase domain 10 (ADAM10): DPAGT1 silencing (protein) parent chain: MVLLRVLILLLSWAAGMGGQYGNPLNKYIRHYEGLSYNVDSLHQKHQRAKRAVSHEDQFLRLDFHAHGRHFNLRMKRDTSLFSDEFKVETSNKVLDYDTSHIYTGHIYGEEGSFSHGSVIDGRFEGFIQTRGGTFYVEPAERYIKDRTLPFHSVIYHEDDINYPHKYGPQGGCADHSVFERMRKYQMTGVEEVTQIPQEEHAANGPELLRKKRTTSAEKNTCQLYIQTDHLFFKYYGTREAVIAQISSHVKAIDTIYQTTDFSGIRNISFMVKRIRINTTADEKDPTNPFRFPNIGVEKFLELNSEQNHDDYCLAYVFTDRDFDDGVLGLAWVGAPSGSSGGICEKSKLYSDGKKKSLNTGIITVQNYGSHVPPKVSHITFAHEVGHNFGSPHDSGTECTPGESKNLGQKENGNYIMYARATSGDKLNNNKFSLCSIRNISQVLEKKRNNCFVESGQPICGNGMVEQGEECDCGYSDQCKDECCFDANQPEGRKCKLKPGKQCSPSQGPCCTAQCAFKSKSEKCRDDSDCAREGICNGFTALCPASDPKPNFTDCNRHTQVCINGQCAGSICEKYGLEECTCASSDGKDDKELCHVCCMKKMDPSTCASTGSVQWSRHFSGRTITLQPGSPCNDFRGYCDVFMRCRLVDADGPLARLKKAIFSPELYENIAEWIVAHWWAVLLMGIALIMLMAGFIKICSVHTPSSNPKLPPPKPLPGTLKRRRPPQPIQQPQRQRPRESYQMGHMRR | decreases | decreases | 
5 | ADAM metallopeptidase domain 10 (ADAM10): DPAGT1 inhibition/knockdown + Eer I or MG132 (protein) parent chain: MVLLRVLILLLSWAAGMGGQYGNPLNKYIRHYEGLSYNVDSLHQKHQRAKRAVSHEDQFLRLDFHAHGRHFNLRMKRDTSLFSDEFKVETSNKVLDYDTSHIYTGHIYGEEGSFSHGSVIDGRFEGFIQTRGGTFYVEPAERYIKDRTLPFHSVIYHEDDINYPHKYGPQGGCADHSVFERMRKYQMTGVEEVTQIPQEEHAANGPELLRKKRTTSAEKNTCQLYIQTDHLFFKYYGTREAVIAQISSHVKAIDTIYQTTDFSGIRNISFMVKRIRINTTADEKDPTNPFRFPNIGVEKFLELNSEQNHDDYCLAYVFTDRDFDDGVLGLAWVGAPSGSSGGICEKSKLYSDGKKKSLNTGIITVQNYGSHVPPKVSHITFAHEVGHNFGSPHDSGTECTPGESKNLGQKENGNYIMYARATSGDKLNNNKFSLCSIRNISQVLEKKRNNCFVESGQPICGNGMVEQGEECDCGYSDQCKDECCFDANQPEGRKCKLKPGKQCSPSQGPCCTAQCAFKSKSEKCRDDSDCAREGICNGFTALCPASDPKPNFTDCNRHTQVCINGQCAGSICEKYGLEECTCASSDGKDDKELCHVCCMKKMDPSTCASTGSVQWSRHFSGRTITLQPGSPCNDFRGYCDVFMRCRLVDADGPLARLKKAIFSPELYENIAEWIVAHWWAVLLMGIALIMLMAGFIKICSVHTPSSNPKLPPPKPLPGTLKRRRPPQPIQQPQRQRPRESYQMGHMRR |  |  | other: proteolytic processing [5]: abolishes
